This data set can be described thus: Enzyme assay in vitro: formation of vanillin from isoeugenol by purified isoeugenol monooxygenase (HPLC). Format: biochemical. The settings on record: 10 mM isoeugenol, pH 7.0, 30° C., 10 min. As for the experimental part: The two purified isoeugenol monooxygenases were assayed by measuring the formation of vanillin in an enzymatic measuring mixture with isoeugenol as the substrate. The reaction mixture contained 10 mM isoeugenol, 100 mM potassium phosphate buffer (pH 7.0), 10% (v/v) ethanol and an appropriate amount of enzyme, in a total volume of 1 ml. The reaction was started, by adding isoeugenol as ethanol solution, carried out at 30° C. for 10 min with reciprocal shaking (160 strokes min^−1) and stopped with 1 ml of methanol. After centrifugation at 21,500, the supernatant was analyzed by HPLC for the determination of isoeugenol, vanillin, and vanillyl alcohol. CfIEM enzyme treated in boiling water for 5 minutes was used as the negative control.
As expected, no vanillin was produced with the negative control (lower panel).

B1: CfIEM: isoeugenol monooxygenase from the fungus Colletotrichum fioriniae PJ7, 539 amino acids (SEQ ID NO: 2) (protein, listed as Colletotrichum fioriniae)
chain: MAPGRTDDEAAEVATSSKTHAISNYGLTTKWPEAYDLAGSNLPCRLEGEIGDLVVLGEIPKEIDGTFYRVMTDPFVPPHPNNVPLDGDGNISAFRIKDGRVDMKMRYVETERYKLERKANKALFGLYRNPFTHHPCVRAAVDSTANTNVVLWADHFLALKEGGLPYSVDPQTLETIKYDPFGQIKAKTFTAHPKIDPYTNELVVFGYEARGLASLDIVIYALDSNGVKHDEQWIKSPWCAPIHDCAITPNWIILALWPFEASVDRMKKGGHHWAWDYDLPATFIVAPRRSSTKLPPGWQPGESRVYSWKNCMLIHTGGAWESEDGQTLFMETTRVHDNGFPFFPTNEGVYPAPDPKSDYVRWTFDLSQPTNSKVPDPEIILDMPAEFPRLDERFLSKSYNYVWINVYIHEDQNGDGHTIVEGLNGLAMHNSKTKETKCFNAGAESFCQEPIFIPRSDDAPEGDGWVMTMVERRGANRNEIVVLDTKDFEKPIAVIQLPFHVKAQVHGNWVDQRRLKAWQKLARDAVPEPISGQGALEPL
Take B1: the activity toward isoeugenol entry is recorded as “high activity” and the “conversion of added isoeugenol to vanillin (HPLC)” value is on record as “Almost all isoeugenol added to the reaction mixture was converted to vanillin”.

The values above are taken from patent US20220112526A1, “BIOSYNTHESIS OF VANILLIN FROM ISOEUGENOL” (Conagen Inc., priority 2019, published 2022).
